From publication PMC8278045 come the findings set out here.

What all share (assay): affinity purification with mass spectrometry; GFP pull-down (µMACS/MultiMACS GFP Isolation Kit beads) from thylakoid membranes of GFP-labelled Syn7942 strains solubilised with 1% digitonin; label-free LC-MS/MS, abundances normalised to GFP, WT strain as control, triplicates
Assay [1] deals with PsaE of Photosystem I labelled with enhanced GFP (PSI–GFP) (Synechococcus elongatus PCC 7942) (UniProt Q31NL7).
Assay [2] has as its target PsbB (CP47) of Photosystem II labelled with enhanced GFP (PSII–GFP) (Synechococcus elongatus PCC 7942) (UniProt P31094).
For assay [3], the target named is PetA of Cytochrome b6f labelled with enhanced GFP (Cyt b6f–GFP) (Synechococcus elongatus PCC 7942) (UniProt Q31NV8).
UniProt Q31NV8, sequence (Q31NV8 31-324): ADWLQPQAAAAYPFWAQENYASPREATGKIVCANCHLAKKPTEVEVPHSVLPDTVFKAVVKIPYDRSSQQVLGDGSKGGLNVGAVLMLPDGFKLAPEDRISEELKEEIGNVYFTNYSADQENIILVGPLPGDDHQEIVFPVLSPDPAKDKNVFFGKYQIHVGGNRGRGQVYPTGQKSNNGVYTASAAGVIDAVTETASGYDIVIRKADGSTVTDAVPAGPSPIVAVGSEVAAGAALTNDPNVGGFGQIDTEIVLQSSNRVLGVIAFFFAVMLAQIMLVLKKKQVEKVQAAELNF

UniProt Q31NL7, sequence (Q31NL7 whole entry): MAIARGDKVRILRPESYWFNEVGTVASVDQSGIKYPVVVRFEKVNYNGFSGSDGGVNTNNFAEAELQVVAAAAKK
UniProt P31094, sequence (P31094 whole entry): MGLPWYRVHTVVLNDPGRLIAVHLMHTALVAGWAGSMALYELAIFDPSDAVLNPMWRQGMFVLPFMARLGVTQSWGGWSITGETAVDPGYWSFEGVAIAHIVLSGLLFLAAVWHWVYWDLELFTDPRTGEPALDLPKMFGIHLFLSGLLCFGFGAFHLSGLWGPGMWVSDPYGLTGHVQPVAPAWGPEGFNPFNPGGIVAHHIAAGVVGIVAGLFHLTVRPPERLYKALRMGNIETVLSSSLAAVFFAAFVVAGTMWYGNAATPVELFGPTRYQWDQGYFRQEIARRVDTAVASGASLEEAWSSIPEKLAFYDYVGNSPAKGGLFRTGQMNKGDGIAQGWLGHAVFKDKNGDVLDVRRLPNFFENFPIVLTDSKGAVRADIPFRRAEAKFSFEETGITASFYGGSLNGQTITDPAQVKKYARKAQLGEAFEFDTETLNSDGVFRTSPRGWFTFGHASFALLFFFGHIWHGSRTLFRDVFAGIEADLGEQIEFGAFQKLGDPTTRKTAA

As for “Cytochrome b6f (Cyt b6f) (from UniProt Q31KG3 1-37) (complex)”, the percent of PSI associated with Cyt b6f in assay [1] is 0.3%. Moreover, in assay [2], the percent of PSII associated with Cyt b6f was found to be 1.98%.

With “Photosystem I (PSI) (from UniProt P0A421 1-139; P0A402 24-164; P0A426 5-83) (complex)”, the percent of Cyt b6f associated with PSI in assay [3] worked out at 4.1%. In addition, the percent of PSII associated with PSI in assay [2] was 9.9%.

Turning to “Photosystem II (PSII) (from UniProt P31094 1-508; Q31M07 29-136; Q31LM9 31-167; Q31LS7 1-40) (complex)”, the percent of Cyt b6f associated with PSII in assay [3] was determined as 2%. For the same substance, in assay [1], the percent of PSI associated with PSII worked out at 1.72%.
